Positions count from the first letter of the chain named. Numbers in names are those of the source.
B1: N70S: mutated TriA variant of SEQ ID NO: 2 (protein)
chain: MQTLSIQHGTLVTMDQYRRVLGDSWVHVQDGRIVALGVHAESVPPPADRVIDARGKVVLPGFINAHTHVSQILLRGGPSHGRQLYDWLFNVLYPGQKAMRPEDVAVAVRLYCAEAVRSGITTINDNADSAIYPGNIEAAMAVYGEVGVRVVYARMFFDRMDGRIQGYVDALKARSPQVELCSIMEETAVAKDRITALSDQYHGTAGGRISVWPAPAITPAVTVEGMRWAQAFARDRAVMWTLHMAESDHDERLHWMSPAEYMECYGLLDERLQVAHCVYFDRKDVRLLHRHNVKVASQVVSNAYLGSGVAPVPEMVERGMAVGIGTDDGNCNDSVNMIGDMKFMAHIHRAVHRDADVLTPEKILEMATIDGARSLGMDHEIGSIETGKRADLILLDLRHPQTTPHHHLAATIVFQAYGNEVDTVLIDGNVVMENRRLSFLPPERELAFLEEAQSRATAILQRANMVANPAWRSL
modifications: Pseudomonas
B2: F157S: mutated TriA variant of SEQ ID NO: 2 (protein)
chain: B1 chain with S70N, F157S
modifications: Pseudomonas
B3: Q71NL92AD128G: mutated TriA variant of SEQ ID NO: 2 (protein)
chain: B1 chain with S70N, Q71N, L92A, D128G
modifications: Pseudomonas
B4: Q71NL88AL92AD128A: mutated TriA variant of SEQ ID NO: 2 (protein)
chain: B1 chain with S70N, Q71N, L88A, L92A, D128A
modifications: Pseudomonas
B5: Q71NL92AY93FD128G: mutated TriA variant of SEQ ID NO: 2 (protein)
chain: B1 chain with S70N, Q71N, L92A, Y93F, D128G
modifications: Pseudomonas
B6: Q71NL92AY93F: mutated TriA variant of SEQ ID NO: 2 (protein)
chain: B1 chain with S70N, Q71N, L92A, Y93F
modifications: Pseudomonas
B7: Q71V: mutated TriA variant of SEQ ID NO: 2 (protein)
chain: B1 chain with S70N, Q71V
modifications: Pseudomonas
B8: Q71NL88AL92AY93L: mutated TriA variant of SEQ ID NO: 2 (protein)
chain: B1 chain with S70N, Q71N, L88A, L92A, Y93L
modifications: Pseudomonas
B9: Q71NL88AL92AY93LI217A: mutated TriA variant of SEQ ID NO: 2 (protein)
chain: B1 chain with S70N, Q71N, L88A, L92A, Y93L, I217A
modifications: Pseudomonas
B10: Q71NL92AY93FD128GQ96T: mutated TriA variant of SEQ ID NO: 2 (protein)
chain: B1 chain with S70N, Q71N, L92A, Y93F, Q96T, D128G
modifications: Pseudomonas
B11: Q71NL88AL92A: mutated TriA variant of SEQ ID NO: 2 (protein)
chain: B1 chain with S70N, Q71N, L88A, L92A
modifications: Pseudomonas
B12: Q71G: mutated TriA variant of SEQ ID NO: 2 (protein)
chain: B1 chain with S70N, Q71G
modifications: Pseudomonas
B13: Q71S: mutated TriA variant of SEQ ID NO: 2 (protein)
chain: B1 chain with S70N, Q71S
modifications: Pseudomonas
B14: Q71NL88AL92AY93F: mutated TriA variant of SEQ ID NO: 2 (protein)
chain: B1 chain with S70N, Q71N, L88A, L92A, Y93F
modifications: Pseudomonas
B15: Q71NL92AD128A: mutated TriA variant of SEQ ID NO: 2 (protein)
chain: B1 chain with S70N, Q71N, L92A, D128A
modifications: Pseudomonas
B16: Q71NL92AY93L: mutated TriA variant of SEQ ID NO: 2 (protein)
chain: B1 chain with S70N, Q71N, L92A, Y93L
modifications: Pseudomonas
B17: Q71NL92AM155TF157L: mutated TriA variant of SEQ ID NO: 2 (protein)
chain: B1 chain with S70N, Q71N, L92A, M155T, F157L
modifications: Pseudomonas
B18: Q71NL92AY93FD128A: mutated TriA variant of SEQ ID NO: 2 (protein)
chain: B1 chain with S70N, Q71N, L92A, Y93F, D128A
modifications: Pseudomonas
B19: Q71NL88AL92AD128G: mutated TriA variant of SEQ ID NO: 2 (protein)
chain: B1 chain with S70N, Q71N, L88A, L92A, D128G
modifications: Pseudomonas
B20: Q71NL92A: mutated TriA variant of SEQ ID NO: 2 (protein)
chain: B1 chain with S70N, Q71N, L92A
modifications: Pseudomonas
B21: Q71NL88AL92AY93FF157L: mutated TriA variant of SEQ ID NO: 2 (protein)
chain: B1 chain with S70N, Q71N, L88A, L92A, Y93F, F157L
modifications: Pseudomonas
B22: ΔR174_L180: TriA deletion variant of SEQ ID NO: 2 (protein)
chain: MQTLSIQHGTLVTMDQYRRVLGDSWVHVQDGRIVALGVHAESVPPPADRVIDARGKVVLPGFINAHTHVNQILLRGGPSHGRQLYDWLFNVLYPGQKAMRPEDVAVAVRLYCAEAVRSGITTINDNADSAIYPGNIEAAMAVYGEVGVRVVYARMFFDRMDGRIQGYVDALKACSIMEETAVAKDRITALSDQYHGTAGGRISVWPAPAITPAVTVEGMRWAQAFARDRAVMWTLHMAESDHDERLHWMSPAEYMECYGLLDERLQVAHCVYFDRKDVRLLHRHNVKVASQVVSNAYLGSGVAPVPEMVERGMAVGIGTDDGNCNDSVNMIGDMKFMAHIHRAVHRDADVLTPEKILEMATIDGARSLGMDHEIGSIETGKRADLILLDLRHPQTTPHHHLAATIVFQAYGNEVDTVLIDGNVVMENRRLSFLPPERELAFLEEAQSRATAILQRANMVANPAWRSL
modifications: Pseudomonas

Type: biochemical
Conditions: pH 7.2
Experimental: EXAMPLE 3: Protein Purification. TriA and variants thereof were produced in E. coli BL21(DE3) Gold (Agilent Technologies, Germany). Therefore E. coli was transformed with appropriate pET24d N-HIS tag expression vector and chaperone plasmid pGro7 (chaperones groEL and groES). Bacterial strains were grown at 30° C. in 100 mL LB for 20 h and protein expression induced with 0.1 mM IPTG at 25° C. for 20 hs. Cells were harvested by centrifugation at 3000 rpm at 4° C. for 20 min, resuspended in Bug Buster protein extraction reagent (Novagen, Germany) according to manufactures instructions. Lysates were clarified by centrifugation. Samples of bovine serum albumin ([…]) were loaded onto each gel analyzed by densitometry to provide an internal standard. Protein determinations were verified using Coomassie protein assay dye, according to manufactures instruction (Thermo Scientific; USA). The HIS-tagged enzymes were purified by metal ion affinity chromatography using Ni-IDA 1000 kit (Macherey-Nagel, Germany) following manufactures instructions. Protein purity was accessed by SDS-PAGE using NuPAGE Novex 4-12% Bis-Tris pre-cast gels (Life Technologies; USA) stained with Coomassie Brilliant Blue (Serva, Germany). Protein concentrations were estimated by measuring absorbance at 280 nm using Lambda Bio+(Perkin Elmer, USA). EXAMPLE 4: Enzyme kinetics. Resting cell suspension containing triA gene were incubated with various azines, melamine and atrazine and the culture filtrate was analyzed by UPLC-HR-MS. Substrates were obtained either from Sigma-Aldrich or synthesized internally. Synthetic standards and enzyme reaction products were analysed by UPLC-HR-MS (Thermo/Dionex UPLC UltiMate3000 coupled to a QExactive high resolution mass spectrometer). A Waters Acquity HSS T3 column (2.1 mm; 100 mm; […]) was used with a mobile phase water/acetonitrile (0.1% formic acid) with a flow rate of […]. Enzymes were used solved 25 mM sodium phosphate buffer (pH 7.2) with substrate concentration in the range of 1 nM to 10 nM at 30° C. Over time, the original azine peak disappeared whereas the formed OH-Metabolite (reaction product) increased. The product was identified by determination of the exact formula and by analysis of the accurate MS-MS fragments. Moreover for some of the formed products authentic standards were co-eluted. Degradation in % was calculated against the cells harboring the empty vector as control.

Molecule	Degradation in % of 6-cyclopentyl-N4-(2,3,4,5,6-pentafluorophenyl)-1,3,5-triazine-2,4-diamine	Degradation in % of Melamine
B1	0%	0%
B2	0%	10%
B3	61%	0%
B4	4%	0%
B5	74%	0%
B6	100%	78%
B7	0%	0%
B8	99%	4%
B9	99%	12%
B10	99%	1%
B11	64%	40%
B12	0%	19%
B13	0%	43%
B14	92%	5%
B15	98%	0%
B16	100%	99%
B17	98%	44%
B18	98%	0%
B19	31%	0%
B20	99%	87%
B21	91%	1%
B22	0%	1%

Reference: patent US11499162B2, “Plants having increased tolerance to herbicides” (BASF SE, priority 2016, dated 2022)
